Laboratory results from patent US5668264.
pKd: −log10 of the molar value.

Biological target: PDGF AB (Homo sapiens) (UniProt P04085+P01127)
Experiment: filter
Settings: 2'-F on all C and U; random starting pool

Sequence of PDGF AB (Homo sapiens) (P01127 82-190, chain 2 of 2, other chains not shown): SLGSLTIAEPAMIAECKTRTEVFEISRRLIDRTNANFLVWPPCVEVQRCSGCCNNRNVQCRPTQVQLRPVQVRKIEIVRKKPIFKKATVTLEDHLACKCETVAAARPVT

Question: With “GGGAGACAAGAAUAACGCUCAANNNNNNNNNNNNNNNNNNNNNNNNNNNNNNNNNNNNNNNNNNNNNNNNNNUUCGACAGGAGGCUCACAACAGGC [random 2'-F pyrimidine RNA pool (50N)]” as the sequence, how does the pKd read?
Answer: 7.46
